Results from patent US20140086829A1 (BIOREC S A, published 2014).
Positions count from the first letter of the chain named.

T1: isoform 121 of human VEGF-A (Peprotech) (human, UniProt P15692-9 27-147)
T1 construct: also called human VEGF121; VEGF 121
T1 sequence (looked up): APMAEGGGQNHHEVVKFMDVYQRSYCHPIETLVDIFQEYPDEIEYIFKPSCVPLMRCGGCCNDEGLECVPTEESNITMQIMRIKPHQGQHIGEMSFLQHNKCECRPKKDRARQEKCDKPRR

T2: mouse VEGF (Peprotech) (mouse, UniProt Q00731-2 27-190, limits assumed)
T2 construct: also called Mouse VEGF-A
T2 sequence (looked up): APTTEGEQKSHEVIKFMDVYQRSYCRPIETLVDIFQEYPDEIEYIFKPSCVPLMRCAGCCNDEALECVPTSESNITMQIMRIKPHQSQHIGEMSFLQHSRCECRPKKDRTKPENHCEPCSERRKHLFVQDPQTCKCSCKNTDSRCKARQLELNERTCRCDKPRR

T3: human GST-VEGF (human, UniProt P15692-9 27-147)
T3 construct: also called GST-VEGF humano; not shown: GST fusion partner
T3 sequence (looked up): T1 sequence (looked up)

B1: scFv L3H6 antibody fragment (scFv)
scFv: QQVQLVQSGAEVKKPGESLKISCKGSGYSFTSYWIGWVRQMPGKGLEWMGIIYPGDSDTRYSPSFQGQVTISADKSISTAYLQWSSLKASDTAMYYCARQGTHNRKIWGQGTMVTVSSAPQAKSSGSGSESKVDQAVVTQEPSLTVSPGGTVTLTCASSTGAVTSGNYPNWFQQRPGQPPRALIYSTSNKHSWTPARFSGSLLGGKAALTLSGAQPEDEAEYYCRLSYDLARPVFGGGTKLTVLG
notes: soluble, from E. coli
B2: scFv L3H7 antibody fragment (scFv)
scFv: B1 scFv with Q100P, G101Y, T102A, H103T, N104D, R105T, K106R
notes: soluble, from E. coli
B3: scFv L3H5 antibody fragment (scFv)
scFv: B1 scFv with Q100L, G101V, T102H, H103R, N104Y, K106A
notes: soluble, from E. coli
B4: Fab 2H1-32 (Fab, V domains shown)
VH: QVQLVQSGAEVKKPGESLKISCKGSGYSFTSYWIGWVRQMPGKGLEWMGIIYPGDSDTRYSPSFQGQVTISADKSISTAYLQWSSLKASDTAMYYCARLVVRDTEIWGQGTMVTVSS
VL: QAVVTQEPSLTVSPGGTVTLTCASSIGAVTSGNYPNWFQQRPGQPPRALIYSTSNKHSWTPARFSGSLLGGKAALTLSGAQPEDEAEYYCLLSYSGARPVFGGGTKLTVLG
B5: Fab L3H6 (Fab, V domains shown)
VH: B4 VH with L99Q, V100G, V101T, R102H, D103N, T104R, E105K
VL: B4 VL with I26T, L91R, S95D, G96L
notes: The entries are the mature chains without the six histidines and c-myc that the heavy chain carried at its C-terminus in the assay
B6: Fab L3H7 (Fab, V domains shown)
VH: B4 VH with L99P, V100Y, V101A, R102T, E105R
VL: B4 VL with I26T, L91R, S95D, G96L
notes: Entries lack the six histidines and c-myc of the heavy chain
B7: Fab L3H5 (Fab, V domains shown)
VH: B4 VH with V101H, D103Y, T104R, E105A
VL: B4 VL with I26T, L91R, S95D, G96L
notes: as for B6
B8: phage displayed scFv clone 3F3 (scFv)
scFv: B1 scFv with R225L, D229S, L230G
modifications: Displayed on M13 phage as a protein III fusion; the phage part is not in the letters.
notes: also called VH H6
B9: phage displayed scFv clone 4D8 (scFv)
scFv: B1 scFv with Q100P, G101Y, T102A, H103T, N104D, R105T, K106R, R225L, D229S, L230G
modifications: Displayed on M13 phage as a protein III fusion; the phage part is not in the letters.
notes: also called VH H7

Biological target: T4, isoform 165 of human VEGF-A (Peprotech) (human, UniProt P15692-4 27-191)
T4 construct: also called human VEGF165; VEGF 165
Assay: SPR, BIAcore-X; VEGF 165 coupled to CM5 chip; scFv injected; Langmuir 1:1
Target sequence in this assay (P15692 other isoform, or with tags, fused parts or gaps limits assumed): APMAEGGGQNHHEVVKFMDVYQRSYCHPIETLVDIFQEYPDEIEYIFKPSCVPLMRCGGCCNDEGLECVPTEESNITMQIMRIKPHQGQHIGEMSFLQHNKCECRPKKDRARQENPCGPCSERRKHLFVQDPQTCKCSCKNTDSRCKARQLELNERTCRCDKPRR
Description: (§1) A CM5 sensor chip was activated via the covalent binding of human VEGF using N-Ethyl-N′-(3-dimethylaminopropyl)carbodihimide hydrochloride (EDC) and N-hydroxysuccinimide (NHS), according to the manufacturer's instructions.
(§2) The kinetic parameters and the equilibrium dissociation constants (KD) were calculated using the BIA Evaluation 3.2 software. The binding data were globally adjusted to a Langmuir 1:1 binding model.

First: B1
Second: B2
The Kd of the first is 3.3-fold lower: 26.1 nM for the first, 87.3 nM for the second.

B3 showed a Kd of 42.1 nM.

Biological target: T1, isoform 121 of human VEGF-A (Peprotech)
Assay: ELISA; antigen coated 1 µg/ml; Fab 10 µg/mL; 9E10-peroxidase
Description: (§3) After blocking the plates with PBS-skimmed milk 4%, the Fab antibody fragments diluted in PBS-skimmed milk 4% were added at a 10 μg/mL concentration, and incubated for 1 h at 22° C. After several washes, 9E10 monoclonal antibody conjugated to peroxidase was added for 1 hour. After washing, the fragments bound to the solid phase were detected by the addition of substrate solution. The absorbance was read at 492 nm in a microplate reader.

Going from B4 to B5, the “absorbance at 492 nm” value rises from 0.589 to 2.56.

First: B6
Second: B7
The “absorbance at 492 nm” value of the first is lower: 2.22 for the first, 2.25 for the second.

Biological target: T4, isoform 165 of human VEGF-A (Peprotech)
Assay: as above
Target sequence in this assay (P15692 other isoform, or with tags, fused parts or gaps limits assumed): as above
Description: as §3

First: B4
Second: B5
The “absorbance at 492 nm” value of the first is lower: 0.601 for the first, 2.46 for the second.

First: B6
Second: B7
The “absorbance at 492 nm” value of the first is lower: 2.2 for the first, 2.35 for the second.

Biological target: T2, mouse VEGF (Peprotech)
Assay: as above
Description: as §3

Going from B4 to B5, the “absorbance at 492 nm” value rises from 0.091 to 1.19.

Going from B6 to B7, the “absorbance at 492 nm” value falls from 1.1 to 1.09.

Biological target: T3, human GST-VEGF
Assay: competition ELISA on coated GST-VEGF with soluble scFv 2H1
Description: For this, Maxisorp 96-well plates (Nunc) were coated with 10 μg/mL GST-VEGF, followed by blocking with PBS-4% skimmed milk. […] After several washes with PBS-0.1% Tween 20, VEGF-bound phages were detected using an anti-M13 antibody, conjugated to peroxidase (Amersham-Pharmacia) for 1 hour at 22° C. Following several washes, the reactions were developed with substrate solution. Absorbance was read at 492 nm in a microplate reader. […] This value is a relative indicator of the affinity of the different clones for the antigen. Higher IC50 values correspond with higher affinity.

B8 and B9 fall in the same range of “fold IC50 (relative affinity) against the original phage displayed scFv 2H1” value: 6 to 10 fold for the first, 6 to 10 fold for the second.

Biological target: P64K-VEGFKDR- (human) (UniProt P15692)
Assay: ELISA; antigen coated 1 µg/ml; scFv 10 µg/mL; 9E10-peroxidase

Compared with B1, B2 is lower in absorbance at 492 nm: 2.77 for the first, 2.47 for the second.

Work on B3 yielded an absorbance at 492 nm of 2.61.

Biological target: T4, isoform 165 of human VEGF-A (Peprotech)
Assay: SPR, BIAcore-X
Description: as §1, §2

B1 and B2 fall in the same range of “fold affinity against scFv 2H1” value: 5 to 20 fold for the first, 5 to 20 fold for the second.

Biological target: T1, isoform 121 of human VEGF-A (Peprotech)
Assay: competition ELISA: human VEGF-A isoform 121 coated, scFv varied, blocked ligand soluble KDR-Fc (VEGFR2) at 0.5 ug/mL, bound KDR-Fc detected with anti-human IgG-HRPO, absorbance 492 nm
Excerpt: Detection of bound soluble receptors was made using anti human IgG antibodies conjugated with HRPO.

B1 and B2 are within 1.5-fold of each other in “IC50 (read off the curve)” value: roughly 8 µg/mL for the first, roughly 10 µg/mL for the second.

B3 was tested, and the “IC50 (read off the curve)” value was roughly 9 µg/mL.

Biological target: T1, isoform 121 of human VEGF-A (Peprotech)
Assay: ELISA; antigen coated 1 µg/ml; scFv 10 µg/mL; 9E10-peroxidase
Description: (§4) After several washes, 9E10 monoclonal antibody conjugated to peroxidase was added for 1 hour. After washing, the fragments bound to the solid phase were detected by the addition of substrate solution. The absorbance was read at 492 nm in a microplate reader.

Going from B1 to B2, the “absorbance at 492 nm” value falls from 2.84 to 2.54.

For B3, the “absorbance at 492 nm” value was 2.78.

Biological target: T4, isoform 165 of human VEGF-A (Peprotech)
Assay: as above
Target sequence in this assay (P15692 other isoform, or with tags, fused parts or gaps limits assumed): as above
Description: as §4

First: B1
Second: B2
The “absorbance at 492 nm” value of the first is higher: 2.89 for the first, 2.51 for the second.

With B3 the “absorbance at 492 nm” value was 2.8.

Biological target: T2, mouse VEGF (Peprotech)
Assay: as above
Description: as §4

Compared with B1, B2 is lower in “absorbance at 492 nm” value: 1.43 for the first, 1.12 for the second.

B3 was tested, and the “absorbance at 492 nm” value was 1.39.

Biological target: P64K-VEGFKDR- (human) (UniProt P15692)
Assay: ELISA; antigen coated 1 µg/ml; Fab 10 µg/mL; 9E10-peroxidase

Compared with B4, B5 is higher in absorbance at 492 nm: 0.704 for the first, 2.6 for the second.

First: B6
Second: B7
The absorbance at 492 nm of the first is lower: 2.42 for the first, 2.51 for the second.
